Measured values from patent US20150346192A1.

Legend:
[1] = target: hypothetical protein LOC297607 (rat) (UniProt D4A770); test: IP of RBL-2H3 lysate on nickel beads, MS/MS ProtScore; 1st of 3 experiments
[2] = target: hypothetical protein LOC297607 (rat) (UniProt D4A770); test: IP of RBL-2H3 lysate on nickel beads, MS/MS ProtScore; 2nd of 3 experiments
[3] = target: hypothetical protein LOC297607 (rat) (UniProt D4A770); test: IP of RBL-2H3 lysate on nickel beads, MS/MS ProtScore; 3rd of 3 experiments

hypothetical protein LOC297607 (rat), sequence (D4A770 whole entry): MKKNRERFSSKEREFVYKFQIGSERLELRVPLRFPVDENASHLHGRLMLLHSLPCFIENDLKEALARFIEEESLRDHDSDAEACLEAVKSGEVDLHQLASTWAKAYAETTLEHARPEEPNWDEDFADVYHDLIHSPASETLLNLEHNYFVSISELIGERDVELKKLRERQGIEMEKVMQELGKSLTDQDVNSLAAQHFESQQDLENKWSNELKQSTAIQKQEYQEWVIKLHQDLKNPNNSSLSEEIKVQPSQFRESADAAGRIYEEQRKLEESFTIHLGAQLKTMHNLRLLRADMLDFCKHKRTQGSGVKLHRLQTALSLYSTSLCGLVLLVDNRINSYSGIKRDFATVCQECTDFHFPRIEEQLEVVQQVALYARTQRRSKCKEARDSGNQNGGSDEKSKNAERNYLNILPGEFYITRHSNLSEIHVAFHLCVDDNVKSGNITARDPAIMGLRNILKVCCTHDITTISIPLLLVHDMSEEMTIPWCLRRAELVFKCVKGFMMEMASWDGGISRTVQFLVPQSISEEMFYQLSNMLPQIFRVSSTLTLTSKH

Protscore IP [1]: 0
Protscore IP [2]: 0
Protscore IP [3]: 2
Substance: irrelevant VH
